{"source": "patent US9526713B2", "about": "“Use of dencichine in preparation of drug for treating thrombocytopenia” (KUNMING SHENGHUO PHARMACEUTICAL (GROUP) CO., LTD., priority 2013, dated 2016)", "molecules": {"B1": {"name": "Interleukin-11: Recombinant human interleukin-11 for injection, sterile lyophilized preparation, Qilu Pharmaceutical; positive drug (protein, UniProt P20809 22-199, looked up)", "Interleukin-11": "PGPPPGPPRVSPDPRAELDSTVLLTRSLLADTRQLAAQLRDKFPADGDHNLDSLPTLAMSAGALGALQLPGVLTRLRADLLSYLRHVQWLRRAGGSSLKTLEPELGTLQARLDRLLRRLQLLMSRLALPQPPPDPPAPPLAPPSSAWGGIRAAHAILGGLHLTLDWAVRGLLLLKTRL"}}, "key": {"ITP model mice [1]": {"test_system": "ITP model mice", "format": "in vivo, BALB/C mice", "conditions": "5 mg/(kg·d) intragastric, 14 days; end of experiment", "source_text": "(§1) Health BALB/C mice (body weight 18˜22 g) are randomly divided into six groups with 12 mice for each group:\nBlank group, Model group, Prednisone Acetate Group, Dencichine (high dose, middle dose, and low dose) groups.\nModeling method: blood was taken from orbital vein of BALB/C Mice, followed by EDTA-Na2 Anticoagulation, and then platelets are separated and washed. The prepared platelet suspension solution was mixed uniformly with equal amount of complete Freund's adjuvant and incomplete Freund's adjuvant respectively. In the first week, antigen containing complete Freund's adjuvant is subcutaneously injected into hind paw, back and groin of the guinea pig. Injections are done for 4 times in total, with 5 spots for each injection and 100 μl for each spot. In the 6th week, non-anticoagulated whole blood was taken from the guinea pigs, and was centrifuged for 10 min under 3000 r/min to produce a supernate, which is the anti-mouse platelet serum (GP-APS) of the guinea pigs. The supernate was placed in a water bath (56° C.) for 30 min for complement inactivation, and then the inactivated supernate was diluted with normal saline, followed by test of antibody titers by agar diffusion method, and finally was stored in a refrigerator at −20° C. for later use.\n(§2) Except the normal group, the mice of the remain five groups are injected with anti-mouse platelet serum (APS) of the guinea pig with a dose of 100 μl/20 g body weight, via intraperitoneal injection, on the 1st, 3rd, 5th, 7th, 9th, 11th and 13th day of the experiment.\n(§3) The mice of each group are given intragastric administration from the first day. […] The mice of the prednisone acetate group are given intragastric administration of suspension of prednisone acetate at 5 mg/(kg·d). The mice of other groups are given intragastric administration of same volumetric of normal saline at 0.2 ml/20 g body weight. Intragastric administration for once each day, and continuous administration for 14 days.\nObservation of the Subcutaneous Purpura:\nClass I, minor bleeding are found at injection sites, and hemorrhagic spots are interspersed at other sites;\nClass II, overt bleeding are found at injection sites, and ecchymosis and petechiae are found at other sites;"}, "[2]": {"format": "in vivo, BALB/C mice", "conditions": "5 mg/(kg·d) intragastric", "experimental": "as §1, §2, §3\nThe weights of mice of each group are respectively measured before modeling, on 7th test day, and on 14th test day."}, "ITP model mice [3]": {"test_system": "ITP model mice", "format": "in vivo, BALB/C mice", "conditions": "5 mg/kg intragastric", "experimental": "as §1, §2\nThe mice of each group are given intragastric administration from the first day. The mice of the dencichine high dose, middle-dose and low dose groups are given intragastric administration at […] respectively. The mice of the prednisone acetate group are given intragastric administration of suspension of prednisone acetate at 5 mg/(kg·d). The mice of other groups are given intragastric administration of same volumetric of normal saline at 0.2 ml/20 g body weight. Intragastric administration for once each day, and continuous administration for 14 days.\n20 μl Blood was collected from orbital veins of each mouse of each group before Modeling and on 14th test day respectively, and dropped into anticoagulative tubes, then platelet count was detected by an automated blood analyzers."}, "female mouse": {"test_system": "female mouse", "conditions": "Zhao Guoqiang et al., 1984; cited from earlier work"}, "[4]": {"test_system": "rats suffering thrombopenia induced by carboplatin", "assay": "Platelet count of rats suffering thrombopenia induced by multiple injections of carboplatin", "format": "in vivo, Wistar rats", "conditions": "260 μg/kg s.c., carboplatin model", "experimental": "(§4) 81 rats are prepared and randomly divided into eight groups: • blank control group, • high-dose group A (4 mg/kg, intraperitoneal injection, non modeling), • model group (40 mg/kg, tail vein injection), • interleukin-11 group (260 μg/kg, subcutaneous injection), • high dose group B (4 mg/kg, intraperitoneal injection, modeling), • high dose group (4 mg/kg, intraperitoneal injection), • middle dose group (1 mg/kg, intraperitoneal injection), and • low dose group (0.25 mg/kg, intraperitoneal injection),\n(§5) wherein, the Model group has 11 rats, and the other groups has 10 rats respectively. Before the experiment, the animals are asked to adapt the environment for 2 days, and then blood is taken from their tails for detecting hematological index.\n(§6) After administration for 10 days, blood is taken from tails of rats from blank control group, high-dose group A, and positive drug group respectively for detecting hematological index.\n(§7) Thereafter, all animals, except for those of blank group and high-dose group A, are individually injected with carboplatin (40 mg/kg) for modeling, and followed by successive administration for 15 days. During these 15 days, the rats of high-dose group A and high dose group B are stopped from administration, and taken blood from the tail on 5th day, 10th day and 15th day after the modeling respectively for detecting hematological indices. After 15th day of modeling, carboplatin (40 mg/kg) is injected again for a second modeling, and all the groups take successive administration according to the foregoing method, once a day for successive 10 days. Before each hematological indices detection, animals are weighed respectively. Taking the tails' blood of rats on 5th day after the second injection of carboplatin for detecting hematological indices, and taking the tails' blood of rats on 10th day after the second injection of carboplatin for detecting the indices of hematology, reticulocytes and coagulation; and weighing animals and killing them; and weighing liver, thymus, spleen and adrenal gland taken from the dead rats, and calculating out viscera indices; further taking out marrow for doing pathological examination."}, "[5]": {"assay": "Body weight of rats suffering thrombopenia induced by carboplatin", "format": "in vivo, Wistar rats", "conditions": "for body weight: 260 μg/kg s.c., carboplatin model", "experimental": "as §4, §5, §6, §7"}, "[6]": {"test_system": "rats with thrombocytopenia caused by carboplatin", "assay": "Platelet count of rats with thrombocytopenia caused by carboplatin, different prophylactic administration time", "format": "in vivo, rat"}, "[7]": {"assay": "Organ index of rats suffering thrombopenia induced by carboplatin", "format": "in vivo, Wistar rats", "experimental": "as §4, §7"}, "[8]": {"conditions": "5th day after first injection of carboplatin"}, "[9]": {"conditions": "5th day after second injection of carboplatin"}, "[10]": {"conditions": "10th day after first injection of carboplatin"}, "[11]": {"conditions": "10th day after second injection of carboplatin"}, "[12]": {"conditions": "15th day after first injection of carboplatin"}, "[13]": {"conditions": "prophylactic administration for 10 days"}, "[14]": {"conditions": "260 μg/kg s.c., carboplatin model"}}, "note": "Read-outs that look alike come from different tables or passages of the source.", "data": [{"molecule": "CC(=O)OCC(=O)[C@@]1(O)CC[C@H]2[C@@H]3CCC4=CC(=O)C=C[C@]4(C)[C@H]3C(=O)C[C@@]21C", "note": "[Prednisone acetate, Prednisone Acetate, reference compound]", "values": [{"measurement": "Subcutaneous purpura, bleeding degree +", "setting": "ITP model mice [1]", "value": "6 number of mice"}, {"measurement": "Subcutaneous purpura, bleeding degree ++", "setting": "ITP model mice [1]", "value": "2 number of mice"}, {"measurement": "Subcutaneous purpura, bleeding degree +++", "setting": "ITP model mice [1]", "value": "0 number of mice"}, {"measurement": "Subcutaneous purpura, bleeding degree −", "setting": "ITP model mice [1]", "value": "0 number of mice"}, {"measurement": "body weight", "setting": "[2]; Day 0", "value": "19.8 ± 2.1", "unit": "g"}, {"measurement": "body weight", "setting": "[2]; Day 7", "value": "19.5 ± 1.8", "unit": "g"}, {"measurement": "body weight", "setting": "[2]; Day 14", "value": "20.6 ± 1.7", "unit": "g"}, {"measurement": "platelet count", "setting": "ITP model mice [3]; Before Modeling", "value": "756.9 ± 130.1 ×10^9/L"}, {"measurement": "platelet count", "setting": "ITP model mice [3]; Day 14", "value": "579.0 ± 70.7 ×10^9/L"}]}, {"molecule": "N[C@H](CNC(=O)C(=O)O)C(=O)O", "note": "[β-N-oxalyl-D-α, β-diaminopropionic acid, reference compound]", "values": [{"measurement": "effect on the hemostasis and increase of platelet count", "setting": "female mouse", "value": "significant effect"}]}, {"molecule": "B1", "values": [{"measurement": "platelet count", "setting": "[4]; [8]", "value": "564.0 ± 126.1 ×10^9/L"}, {"measurement": "platelet count", "setting": "[4]; [9]", "value": "953.7 ± 265.8 ×10^9/L"}, {"measurement": "platelet count", "setting": "[4]; [10]", "value": "234.6 ± 77.9 ×10^9/L"}, {"measurement": "platelet count", "setting": "[4]; [11]", "value": "290.7 ± 180.9 ×10^9/L"}, {"measurement": "platelet count", "setting": "[4]; [12]", "value": "1183.3 ± 92.5 ×10^9/L"}, {"measurement": "platelet count", "setting": "[4]; before experiment", "value": "625.4 ± 124.92 ×10^9/L"}, {"measurement": "platelet count", "setting": "[4]; [13]", "value": "761.6 ± 226.76 ×10^9/L"}, {"measurement": "body weight", "setting": "[5]; [8]", "value": "267.6 ± 41.79", "unit": "g"}, {"measurement": "body weight", "setting": "[5]; [9]", "value": "294.6 ± 47.61", "unit": "g"}, {"measurement": "body weight", "setting": "[5]; [10]", "value": "287.1 ± 41.57", "unit": "g"}, {"measurement": "body weight", "setting": "[5]; [11]", "value": "291.7 ± 52.46", "unit": "g"}, {"measurement": "body weight", "setting": "[5]; [12]", "value": "298.3 ± 44.22", "unit": "g"}, {"measurement": "body weight", "setting": "[5]; before experiment", "value": "186.7 ± 9.63", "unit": "g"}, {"measurement": "body weight", "setting": "[5]; [13]", "value": "268.8 ± 32.65", "unit": "g"}, {"measurement": "body weight and state", "setting": "[5]; 280 μg/kg subcutaneous injection, beginning of the experiment", "value": "obvious body weight loss"}, {"measurement": "platelet count compared with that of model group", "setting": "[6]; prophylactic administration for 3 days", "value": "no significant difference"}, {"measurement": "platelet count", "setting": "[6]; prophylactic administration for 3 days, after prophylactic administration", "value": "820.7 ± 155.13 ×10^9/L"}, {"measurement": "platelet count", "setting": "[6]; prophylactic administration for 3 days, initial value", "value": "736.3 ± 175.56 ×10^9/L"}, {"measurement": "platelet count", "setting": "[6]; prophylactic administration for 3 days, injection of carboplatin for 10 days", "value": "88.5 ± 51.49 ×10^9/L"}, {"measurement": "platelet count compared with that of model group", "setting": "[6]; prophylactic administration for 5 days and 7 days", "value": "increase the platelet count"}, {"measurement": "platelet count", "setting": "[6]; prophylactic administration for 5 days, after prophylactic administration", "value": "759.5 ± 145.34 ×10^9/L"}, {"measurement": "platelet count", "setting": "[6]; prophylactic administration for 5 days, initial value", "value": "724.0 ± 178.87 ×10^9/L"}, {"measurement": "platelet count", "setting": "[6]; prophylactic administration for 5 days, injection of carboplatin for 10 days", "value": "178.3 ± 57.08 ×10^9/L"}, {"measurement": "platelet count", "setting": "[6]; prophylactic administration for 7 days, after prophylactic administration", "value": "860.5 ± 113.92 ×10^9/L"}, {"measurement": "platelet count", "setting": "[6]; prophylactic administration for 7 days, initial value", "value": "732.3 ± 197.06 ×10^9/L"}, {"measurement": "platelet count", "setting": "[6]; prophylactic administration for 7 days, injection of carboplatin for 10 days", "value": "179.5 ± 26.76 ×10^9/L"}, {"measurement": "organ index, Adrenal gland", "setting": "[7]; [14]", "value": "0.04 ± 0.01", "unit": "g/100 g body weight"}, {"measurement": "organ index, Liver", "setting": "[7]; [14]", "value": "4.10 ± 0.30", "unit": "g/100 g body weight"}, {"measurement": "organ index, Spleen", "setting": "[7]; [14]", "value": "0.39 ± 0.05", "unit": "g/100 g body weight"}, {"measurement": "organ index, Thymus gland", "setting": "[7]; [14]", "value": "0.14 ± 0.05", "unit": "g/100 g body weight"}, {"measurement": "index of livers, spleens, suprarenal glands compared with the blank control group", "setting": "[7]; interleukin-11 group", "value": "obvious increases"}]}]}
